Biological target: MnSOD-3[Q142H], site-directed mutant of the manganese superoxide dismutase SOD-3 of C. elegans (C. elegans) (UniProt P41977)
Assay: crystal structure

- stoichiometry N: 4
Substance: MnSOD-3[Q142H], site-directed mutant of the manganese superoxide dismutase SOD-3 of C. elegans (from UniProt P41977 25-218) (enzyme)

From paper PMC5969255
